A value given as a limit tells only on which side of the number the result lay.

This assay concerns the target Native MsrA/B on the surface of N. gonorrhoeae 1291 cells (N. gonorrhoeae strain 1291) (UniProt P14930). The assay can be described thus: whole cell ELISA, N. gonorrhoeae 1291 strains. (An ELISA detects its analyte on a solid surface through an enzyme-linked reagent.)

Native MsrA/B on the surface of N. gonorrhoeae 1291 cells (N. gonorrhoeae strain 1291), sequence (P14930 1-519, tags or fused parts left off): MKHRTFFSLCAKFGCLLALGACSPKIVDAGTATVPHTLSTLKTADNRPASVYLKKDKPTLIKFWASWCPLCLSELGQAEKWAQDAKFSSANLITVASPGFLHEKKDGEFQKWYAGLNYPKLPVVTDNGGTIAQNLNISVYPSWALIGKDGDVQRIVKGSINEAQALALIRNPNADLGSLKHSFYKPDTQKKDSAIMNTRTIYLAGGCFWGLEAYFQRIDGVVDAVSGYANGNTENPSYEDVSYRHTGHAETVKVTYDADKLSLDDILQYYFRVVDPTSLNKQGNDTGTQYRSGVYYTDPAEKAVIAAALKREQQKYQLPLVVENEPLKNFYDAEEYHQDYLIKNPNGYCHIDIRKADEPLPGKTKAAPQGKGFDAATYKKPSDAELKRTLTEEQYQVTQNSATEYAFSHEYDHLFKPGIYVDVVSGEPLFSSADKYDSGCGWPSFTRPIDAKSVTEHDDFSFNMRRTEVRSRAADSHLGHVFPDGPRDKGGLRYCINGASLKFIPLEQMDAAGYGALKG

Pre-immune mouse sera (antibody): the ELISA titre vs whole cells is less than 200 titre.

For the origin of these results see patent publication US20250352630A1.
